T1: MPDZ_5, O75970
T1 sequence (O75970 695-796, limits assumed, looked up): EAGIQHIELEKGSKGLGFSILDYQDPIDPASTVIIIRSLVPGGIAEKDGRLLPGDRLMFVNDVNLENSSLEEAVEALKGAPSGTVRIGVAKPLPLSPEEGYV

T2: SIPA1L2, Q9P2F8
T2 sequence (Q9P2F8 945-1036, limits assumed, looked up): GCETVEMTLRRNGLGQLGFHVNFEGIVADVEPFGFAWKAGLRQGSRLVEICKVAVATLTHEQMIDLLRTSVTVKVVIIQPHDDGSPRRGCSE

T3: PDZRN3_1, Q9UPQ7
T3 sequence (Q9UPQ7 244-349, limits assumed, looked up): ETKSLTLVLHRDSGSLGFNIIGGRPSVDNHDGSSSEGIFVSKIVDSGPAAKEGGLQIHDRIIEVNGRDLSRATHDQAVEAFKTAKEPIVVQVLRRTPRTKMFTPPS

T4: RAPGEF6, Q8TEU7
T4 sequence (Q8TEU7 525-625, limits assumed, looked up): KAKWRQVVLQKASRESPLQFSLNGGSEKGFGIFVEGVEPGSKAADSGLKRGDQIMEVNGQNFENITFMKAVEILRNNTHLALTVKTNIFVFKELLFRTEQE

T5: MPDZ_10, O75970
T5 sequence (O75970 1624-1722, limits assumed, looked up): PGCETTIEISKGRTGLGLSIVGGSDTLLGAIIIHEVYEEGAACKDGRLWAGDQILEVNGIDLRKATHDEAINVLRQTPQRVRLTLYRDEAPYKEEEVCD

T6: SNTG2, Q9NY99
T6 sequence (Q9NY99 68-166, limits assumed, looked up): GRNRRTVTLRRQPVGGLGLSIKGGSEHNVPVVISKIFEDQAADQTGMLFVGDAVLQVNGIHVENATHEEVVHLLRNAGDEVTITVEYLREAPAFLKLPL

T7: MPDZ_12, O75970
T7 sequence (O75970 1857-1958, limits assumed, looked up): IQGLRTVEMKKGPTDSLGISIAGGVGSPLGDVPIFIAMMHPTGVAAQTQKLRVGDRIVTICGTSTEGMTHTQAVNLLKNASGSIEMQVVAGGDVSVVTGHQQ

T8: NHERF3_3, Q5T2W1
T8 sequence (Q5T2W1 238-333, limits assumed, looked up): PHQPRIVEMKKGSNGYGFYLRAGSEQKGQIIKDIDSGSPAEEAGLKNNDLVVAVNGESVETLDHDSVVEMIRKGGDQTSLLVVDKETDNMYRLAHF

T9: DFNB31_1, Q9P202
T9 sequence (Q9P202 135-233, limits assumed, looked up): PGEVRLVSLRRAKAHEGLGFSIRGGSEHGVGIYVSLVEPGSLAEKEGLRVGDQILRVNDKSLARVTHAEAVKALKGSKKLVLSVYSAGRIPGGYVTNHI

T10: LIN7B, Q9HAP6
T10 sequence (Q9HAP6 88-185, limits assumed, looked up): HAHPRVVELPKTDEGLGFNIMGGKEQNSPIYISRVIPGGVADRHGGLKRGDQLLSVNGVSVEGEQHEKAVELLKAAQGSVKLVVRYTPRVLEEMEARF

T11: DLG3_2, Q92796
T11 sequence (Q92796 221-321, limits assumed, looked up): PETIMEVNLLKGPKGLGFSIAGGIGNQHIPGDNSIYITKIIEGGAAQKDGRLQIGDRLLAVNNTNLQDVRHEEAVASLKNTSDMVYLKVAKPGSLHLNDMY

T12: DLG3_1, Q92796
T12 sequence (Q92796 125-227, limits assumed, looked up): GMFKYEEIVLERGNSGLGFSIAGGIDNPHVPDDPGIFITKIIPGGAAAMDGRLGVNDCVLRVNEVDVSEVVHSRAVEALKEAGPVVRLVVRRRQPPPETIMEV


How the values were obtained:
Assay in all cases: holdup assay
Set-up in all cases: key: below the threshold = too weak to quantify, mostly under pKd 3.1 to 4
Details in all cases: plain residues with an end cap or a label only (N-terminal biotin on a linker: ado-ado)
FRMPD2_3, Q68DX3 = molecular target: FRMPD2_3, Q68DX3
MPDZ_5, O75970 = molecular target: T1, MPDZ_5, O75970
TJP1_3, Q07157 = molecular target: TJP1_3, Q07157
SIPA1L2, Q9P2F8 = molecular target: T2, SIPA1L2, Q9P2F8
NHERF4_4, Q86UT5 = molecular target: NHERF4_4, Q86UT5
PDZRN3_1, Q9UPQ7 = molecular target: T3, PDZRN3_1, Q9UPQ7
RAPGEF6, Q8TEU7 = molecular target: T4, RAPGEF6, Q8TEU7
MPDZ_10, O75970 = molecular target: T5, MPDZ_10, O75970
SNTG2, Q9NY99 = molecular target: T6, SNTG2, Q9NY99
Inadl_5, Q8NI35 = molecular target: Inadl_5, Q8NI35
MPDZ_12, O75970 = molecular target: T7, MPDZ_12, O75970
NHERF3_3, Q5T2W1 = molecular target: T8, NHERF3_3, Q5T2W1
GRID2IP_1, A4D2P6 = molecular target: GRID2IP_1, A4D2P6
DFNB31_1, Q9P202 = molecular target: T9, DFNB31_1, Q9P202
DLG1_3, Q12959 = molecular target: DLG1_3, Q12959
AHNAK1, Q09666 = molecular target: AHNAK1, Q09666
SNX27, Q96L92 = molecular target: SNX27, Q96L92
LIN7B, Q9HAP6 = molecular target: T10, LIN7B, Q9HAP6
DLG3_2, Q92796 = molecular target: T11, DLG3_2, Q92796
DLG3_1, Q92796 = molecular target: T12, DLG3_1, Q92796
Inadl_3, Q8NI35 = molecular target: Inadl_3, Q8NI35
NHERF4_2, Q86UT5 = molecular target: NHERF4_2, Q86UT5
LDB3, O75112 = molecular target: LDB3, O75112
SCRIB_1, Q14160 = molecular target: SCRIB_1, Q14160
Chain of SCRIB_1, Q14160 (Q14160 718-814): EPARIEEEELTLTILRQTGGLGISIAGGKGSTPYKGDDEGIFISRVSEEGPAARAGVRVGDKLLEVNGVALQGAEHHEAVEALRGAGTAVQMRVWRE

Chain of NHERF4_2, Q86UT5 (Q86UT5 220-308): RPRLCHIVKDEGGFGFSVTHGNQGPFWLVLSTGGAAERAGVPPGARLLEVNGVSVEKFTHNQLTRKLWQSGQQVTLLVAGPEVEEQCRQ
Chain of NHERF4_4, Q86UT5 (Q86UT5 464-550): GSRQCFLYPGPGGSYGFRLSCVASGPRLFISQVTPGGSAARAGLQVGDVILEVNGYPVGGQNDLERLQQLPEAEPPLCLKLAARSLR
Chain of DLG1_3, Q12959 (Q12959 457-571): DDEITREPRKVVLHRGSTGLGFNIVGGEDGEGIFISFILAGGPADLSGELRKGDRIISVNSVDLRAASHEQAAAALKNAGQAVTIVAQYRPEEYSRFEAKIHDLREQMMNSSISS
Chain of Inadl_3, Q8NI35 (Q8NI35 359-469): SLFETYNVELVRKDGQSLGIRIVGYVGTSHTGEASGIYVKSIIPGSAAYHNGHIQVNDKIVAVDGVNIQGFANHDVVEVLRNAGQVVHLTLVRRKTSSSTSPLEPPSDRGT
Chain of Inadl_5, Q8NI35 (Q8NI35 673-780): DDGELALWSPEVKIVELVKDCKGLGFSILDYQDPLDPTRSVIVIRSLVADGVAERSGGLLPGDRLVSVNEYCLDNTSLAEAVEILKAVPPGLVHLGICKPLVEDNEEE
Chain of LDB3, O75112 (O75112 1-94): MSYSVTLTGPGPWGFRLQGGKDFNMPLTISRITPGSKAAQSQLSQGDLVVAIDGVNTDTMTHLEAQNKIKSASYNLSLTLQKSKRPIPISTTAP
Chain of AHNAK1, Q09666 (Q09666 4-100): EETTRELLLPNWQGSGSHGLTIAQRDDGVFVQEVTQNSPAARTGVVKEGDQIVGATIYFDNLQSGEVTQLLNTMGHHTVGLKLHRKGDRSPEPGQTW
Chain of GRID2IP_1, A4D2P6 (A4D2P6 1-87): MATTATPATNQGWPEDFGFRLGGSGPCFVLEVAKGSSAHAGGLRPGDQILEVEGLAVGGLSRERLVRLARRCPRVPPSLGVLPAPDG
Chain of FRMPD2_3, Q68DX3 (Q68DX3 1073-1166): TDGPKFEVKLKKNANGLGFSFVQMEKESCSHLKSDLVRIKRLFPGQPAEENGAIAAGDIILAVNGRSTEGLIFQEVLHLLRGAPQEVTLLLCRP
Chain of TJP1_3, Q07157 (Q07157 416-512): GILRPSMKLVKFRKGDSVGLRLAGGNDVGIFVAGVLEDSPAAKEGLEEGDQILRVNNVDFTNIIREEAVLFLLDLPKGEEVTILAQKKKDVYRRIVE

Binder	pKd (FRMPD2_3, Q68DX3)	pKd (MPDZ_5, O75970)	pKd (TJP1_3, Q07157)	pKd (SIPA1L2, Q9P2F8)	pKd (NHERF4_4, Q86UT5)	pKd (PDZRN3_1, Q9UPQ7)	pKd (RAPGEF6, Q8TEU7)	pKd (MPDZ_10, O75970)	pKd (SNTG2, Q9NY99)	pKd (Inadl_5, Q8NI35)	pKd (MPDZ_12, O75970)	pKd (NHERF3_3, Q5T2W1)	pKd (GRID2IP_1, A4D2P6)	pKd (DFNB31_1, Q9P202)	pKd (DLG1_3, Q12959)	pKd (AHNAK1, Q09666)	pKd (SNX27, Q96L92)	pKd (LIN7B, Q9HAP6)	pKd (DLG3_2, Q92796)	pKd (DLG3_1, Q92796)	further results
ILRKSTTTTV [PRR16, Q569H4]	below the threshold	below the threshold	below the threshold	below the threshold	below the threshold	below the threshold	below the threshold	below the threshold	below the threshold	below the threshold	below the threshold	below the threshold	below the threshold	below the threshold	3.63	below the threshold	5.15	below the threshold	5.07	4.26	pKd (Inadl_3, Q8NI35): below the threshold; pKd (NHERF4_2, Q86UT5): below the threshold; pKd (LDB3, O75112): below the threshold; pKd (SCRIB_1, Q14160): 3.76
LESTTVGTSV [KARS1, Q15046]	below the threshold	below the threshold	below the threshold	below the threshold	below the threshold	4.24	below the threshold	3.72	below the threshold	below the threshold	3.62	below the threshold	below the threshold	3.61	3.78	below the threshold	4.45	3.79	4.51	3.98	pKd (Inadl_3, Q8NI35): below the threshold; pKd (NHERF4_2, Q86UT5): below the threshold; pKd (LDB3, O75112): below the threshold; pKd (SCRIB_1, Q14160): 3.81
STKRKLASAV [NCF1, P14598]	below the threshold	below the threshold	below the threshold	below the threshold	below the threshold	below the threshold	below the threshold	3.64	below the threshold	below the threshold	3.52	below the threshold	below the threshold	below the threshold	below the threshold	below the threshold	below the threshold	below the threshold	4.45	3.49	pKd (Inadl_3, Q8NI35): below the threshold; pKd (NHERF4_2, Q86UT5): below the threshold; pKd (LDB3, O75112): below the threshold; pKd (SCRIB_1, Q14160): below the threshold

Reference: publication PMC9482650, “Quantitative fragmentomics allow affinity mapping of interactomes” (Nature Communications, 2022)
